Measured values from patent publication US20190091227A1, “METHODS FOR TREATING ER+, HER2-, HRG+ BREAST CANCER USING COMBINATION THERAPIES COMPRISING AN ANTI-ERBB3 ANTIBODY” (Merrimack Pharmaceuticals, Inc., priority 2016, published 2019).
Entries after “also recorded” stand apart in the source; their conditions may differ. Where two headings read alike, the source gives them in different places.

How the values were obtained:
MCF7 cells [1] = test: Proliferation assay (Cell Titer-Glo), MCF7; assay type: cell-based, human
Procedure: (§1) Cells were seeded in duplicate or triplicate at 1500 to 5000 cells per well in 96 well plates, Opaque-walled 96-well plates with clear bottom: 96-well, Black/Clear, Flat bottom with lid, FALCON, 353219 in reduced serum conditions at either 3% v/v FBS or 1% v/v FBS. The day after plating recombinant HRGβ1 was added to yield a final concentration of 10 nM. Control wells received media without HRGβ1. Plates were then incubated for the indicated time period of 4 to 6 days at 37° C. in a humid atmosphere with 95% air, 5% CO2.
(§2) The day after plating recombinant HRGβ1 was added to yield a final concentration of 10 nM. Control wells received media without HRGβ1. […] Where indicated CDK inhibitors were added at 10 μM and dilutions were performed to generate a dose-response curve with 2 controls wells per row. Plates were then incubated for the indicated time period of 4 to 6 days at 37° C. in a humid atmosphere with 95% air, 5% CO2. Growth inhibition was calculated as a function of the relative inhibition or proliferation of cells treated with either growth factor or antagonists to cells treated with diluent only, over the same time period.
(§3) The day after plating recombinant HRGβ1 was added to yield a final concentration of 10 nM. Control wells received media without HRGβ1. […] Where indicated CDK inhibitors were added at 10 μM and dilutions were performed to generate a dose-response curve with 2 controls wells per row. Plates were then incubated for the indicated time period of 4 to 6 days at 37° C. in a humid atmosphere with 95% air, 5% CO2.
(§4) To measure proliferation, Cell Titer-Glo (CTG) assays were performed as per manufacturer's instructions. Specifically, reagent-1 and reagent-2 were equilibrated to room temperature at which point reagent-1 was added to reagent-2 and mixed by vortex. Test plates containing cells were equilibrated to room temperature for 30 minutes at which point an equal volume of CTG reagent was added to each well of the test plate, typically 100 μl to give a final volume of 200 μl per well. Each plate was then sealed with a foil plate sealer and mixed on an orbital shaker for 10 minutes to lyse cells and release cellular ATP. Following mixing plates were incubated at room temperature for 15 minutes to stabilize the luminescent signal. Data was collected by measuring relative luminescence on a Synergy H1 plate reader using the luminescence program. Growth was calculated and expressed as a relative value to the unstimulated control wells on each individual plate. Growth inhibition was calculated as a function of the relative inhibition of cells treated with antagonists to the growth of cells treated with diluent only, over the same time period. Data was then plotted using GraphPad Prism software.

[2] = tested on: metastatic ER-positive HER2-negative breast cancer; settings: letrozole plus palbociclib, combination arm; cited from earlier work
MCF7 cells [3] = test: Cell cycle / S-phase by EdU incorporation and flow cytometry in MCF7 cells; assay type: cell-based, human
Procedure: FIG. 13 is a representative FACS plot of the cell cycle distribution. The gate settings and percentage for cells in G0/G1, S and G2/M phases are indicated. DNA synthesis (S-phase) was determined by quantifying cells positive for both EdU incorporation and DNA content.

[4] = cited from earlier work
RB = RB phosphorylation (S807/811, S780) by Western blotting in MCF7 cells; assay type: cell-based, human; settings: MCF7, 20-24 hours; HRG 10 nM, fulvestrant 50 nM, palbociclib, abemaciclib 40 nM
Procedure: MCF7 cells were cultured as described above. […] Cellular lysates were prepared by lysis in MPER lysis buffer with the addition of protease and phosphatase inhibitors for 30 mins on ice. Cellular debris were removed by centrifugation at 10,000 rpm. Proteins were analyzed by Western blotting according to standard protocols. Protein loading was estimated by blotting with a β-actin antibody (β-Actin (13E5) Rabbit mAb #4970 Cell Signal) and RB activation was measured by detection of phosphorylation of RB (pRB) at pRb (S807/811): Cat #8516 pRb (S780): Cat #8180. Control antibodies as follows total AKT: Cat #9272 pAKT: Cat #4060.

CDK2 = CDK2 activation (phospho-Thr160) by Western blotting in MCF7 cells; assay type: cell-based, human; settings: for CDK2 activation: MCF7, agent alone, 20-24 hours, HRG 10 nM, fulvestrant, palbociclib, abemaciclib 100 nM
Procedure: Cellular lysates were prepared by lysis in MPER lysis buffer with the addition of protease and phosphatase inhibitors for 30 minutes on ice. Cellular debris was removed by centrifugation at 10,000 rpm. Proteins were analyzed by Western blotting according to standard protocols.

MCF7 cells [5] = test: Proliferation assay (Cell Titer-Glo), MCF7; assay type: cell-based, human; settings: MCF7, ligands 1 nM, fulvestrant 50 nM, palbociclib 40 nM, 6 days
ZR75-1 cells = test: Proliferation assay (Cell Titer-Glo), ZR75-1; assay type: cell-based, human; settings: ZR75-1
Procedure: as §2
The day after plating recombinant HRGβ1 was added to yield a final concentration of 10 nM. Control wells received media without HRGβ1. […]
(§5) To measure proliferation, Cell Titer-Glo (CTG) assays were performed as per manufacturer's instructions. […] Data was collected by measuring relative luminescence on a Synergy H1 plate reader using the luminescence program. Growth was calculated and expressed as a relative value to the unstimulated control wells on each individual plate. Growth inhibition was calculated as a function of the relative inhibition of cells treated with antagonists to the growth of cells treated with diluent only, over the same time period. […]

HCC1428 cells = test: Proliferation assay (Cell Titer-Glo), HCC1428; assay type: cell-based, human; settings: HCC1428, stimulated with HRG for 6 days
Procedure: as §1
as §5, with “instructions. Specifically, reagent-1 and reagent-2 were equilibrated to room temperature at which point reagent-1 was added to reagent-2 and mixed by vortex.” for “instructions.”

T47D cells = test: Proliferation assay (Cell Titer-Glo), T47D; assay type: cell-based, human
Procedure: as §1, §2, §3, §4

CC(=O)c1c(C)c2cnc(Nc3ccc(N4CCNCC4)cn3)nc2n(C2CCCC2)c1=O [palbociclib, 6-acetyl-8-cyclopentyl-5-methyl-2-{[5-(piperazin-1-yl)pyridin-2-yl]amino}pyrido[2,3-d]pyrimidin-7(8H)-one]
proliferation (MCF7 cells [1]; MCF7, single agent CDK4/6 inhibitor over a dose range, 6 days): inhibited proliferation in a dose dependent manner | overall survival [2]: did not reach statistical significance | progression free survival (PFS) [2]: statistically significant increase | S-phase cell cycle progression (MCF7 cells [3]; MCF7, single agents in the absence of HRG): efficacious at inhibiting S-phase cell cycle progression | solubility ([4]; above pH 4): reduces significantly | solubility ([4]; at or below pH 4): high-solubility compound | RB phosphorylation / activation (RB): decrease RB activation | CDK2 activation (CDK2): inhibited CDK2 activation

B1: HRG: heregulin, naturally occurring ligand of ErbB3; recombinant HRGβ1 from R&D Systems used in the assays (protein)
chain: SHLVKCAEKEKTFCVNGGECFMVKDLSNPSRYLCKCPNEFTGDRCQNYVMASFYKHLGIEFMEAE
inhibiting fulvestrant, palbociclib and combination activity, ligand comparison (MCF7 cells [5]): most effective ligand | effect of HRG on CDK4/6 inhibitor activity (ZR75-1 cells): inhibited the activity of CDK4/6 inhibitors | proliferation (HCC1428 cells): induced proliferation | effect of HRG on the CDK4/6 inhibitor-fulvestrant combination (MCF7 cells [1]; MCF7): blocked | effect of HRG on CDK4/6 inhibitor activity (MCF7 cells [1]; MCF7, HRG 10 nM, CDK4/6 inhibitor dose range): significantly repressed CDK4/6 inhibitor activity | proliferation (MCF7 cells [1]; MCF7, estradiol and HRG in combination): increased proliferation | proliferation (MCF7 cells [1]; MCF7, stimulated with HRG for 6 days): induced proliferation; also recorded: significantly increased the proliferation | effect of HRG on cell cycle inhibitory activity of the palbociclib-fulvestrant combination (MCF7 cells [3]; MCF7): blocked the cell cycle inhibitory activity | proportion of cells in the S-phase (MCF7 cells [3]; MCF7, 24 hours, resting cells 15.8%): 55% | effect of HRG on cell cycle inhibitory activity of fulvestrant or palbociclib (MCF7 cells [3]; MCF7, single agents): significantly inhibited | proliferation (T47D cells; estradiol and HRG in combination): increased proliferation | inhibiting fulvestrant, palbociclib and combination activity, ligand comparison (T47D cells; ligands 1 nM, fulvestrant 50 nM, palbociclib 40 nM, 6 days): most effective ligand | proliferation (T47D cells; stimulated with HRG for 6 days): induced proliferation; also recorded: significantly increased the proliferation | RB phosphorylation / activation (RB): promoted the phosphorylation and activation of RB | effect of HRG on inhibition of CDK2 activation by fulvestrant, palbociclib or abemaciclib (CDK2; MCF7, HRG 10 nM): blocked this inhibitory activity | CDK2 activation (CDK2): can activate CDK2
